Data as given in PMC9544432 (Proteins, 2021).
Substitutions are numbered along the chain they refer to. Read-outs that look alike come from different tables or passages of the source.

How the values were obtained:
Test in all cases: SPR
[1] = target: T1, VEGFR2(D2–3), domains 2 and 3 of the extracellular portion of human VEGFR2, wild type (human)
T1 chain: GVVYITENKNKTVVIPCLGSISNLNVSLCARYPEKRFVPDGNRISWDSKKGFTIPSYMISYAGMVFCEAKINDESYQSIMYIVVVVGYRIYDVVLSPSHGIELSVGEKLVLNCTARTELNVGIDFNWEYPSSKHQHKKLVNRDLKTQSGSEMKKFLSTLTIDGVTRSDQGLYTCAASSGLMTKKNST

VEGFR2(D2–3) D257A/E261A = target: T2, VEGFR2(D2–3) D257A/E261A (human)
T2 chain: T1 chain with D124A, E128A

[2] = target: T1, VEGFR2(D2–3), domains 2 and 3 of the …

B1: KD035 antigen-binding fragment (Fab) (Fab, V domains shown)
VH: EVQLLESGGGLVQPGGSLRLSCAASGFTFSWYVMGWVRQAPGKGLEWVSSIYPSGGATNYADSVKGRFTISRDNSKNTLYLQMNSLRAEDTAVYYCARGNYFDYWGQGTLVTVSS
VL: QSVLTQPPSVSVSPGQTASITCSGEKLGDEYASWYQQKPGQSPVLVIYQDNKRPSGIPERFSGSNSGNTATLTISGTQAMDEADYYCQAWDSSTLLFGGGTKLTVL
For B1, which Kd [1] is on record?
Its Kd is 1.3 nM.

What about the Kd (VEGFR2(D2–3) D257A/E261A) of the same binder?
Its Kd is 35.8 nM.

And the Kd [2]?
The Kd was 0.22 nM.
